Test [1] concerns the target T1, A56-C-His (recombinant protein A56 with C-terminal His tag, produced in HEK293F cells) (vaccinia virus, UniProt P08714 17-279).
T1 construct: also called UTTA-C-His; UTTA
T1 chain: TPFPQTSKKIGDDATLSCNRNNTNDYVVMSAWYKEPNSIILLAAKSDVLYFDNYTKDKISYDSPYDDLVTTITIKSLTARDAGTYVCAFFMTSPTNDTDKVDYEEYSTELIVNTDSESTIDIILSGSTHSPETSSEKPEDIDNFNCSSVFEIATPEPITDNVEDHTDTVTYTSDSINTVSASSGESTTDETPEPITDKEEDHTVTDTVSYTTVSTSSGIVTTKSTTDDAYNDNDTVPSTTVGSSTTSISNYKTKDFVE
The test can be described thus: ELISA on coated A56 (100 ng), fit; R square 0.9821. (In general: In an ELISA, binding on a coated surface is turned into a signal by an enzyme label.)

Test [2] addresses T1, A56-C-His (recombinant protein A56 with …). The test is described as follows: OCTET (row 'KD (M) by OCTET'; the legend calls it SPR).
Test [3] shares this target.
Test [4] shares this target. The test is described as follows: ELISA (row 'KD (M) by ELISA').
For test [5] the target is unchanged.
Test [6] shares this target. The test can be described thus: OCTET (row 'KD (M) by OCTET'; the legend calls it SPR).
Test [7] shares this target. The test is described as follows: ELISA on coated A56 (100 ng), fit; R square 0.9953.
The target is the same in test [8]. The test can be described thus: ELISA (row 'KD (M) by ELISA').
Test [9] has the same target. The test is described as follows: OCTET (row 'KD (M) by OCTET'; the legend calls it SPR).
For test [10] the target is unchanged. The test can be described thus: ELISA on coated A56 (100 ng), fit; R square 0.9969.
For test [11] the target is unchanged. The test can be described thus: ELISA (row 'KD (M) by ELISA').
The target is the same in test [12]. The test can be described thus: ELISA (row 'KD (M) by ELISA').
Test [13] has the same target. The test is described as follows: OCTET (row 'KD (M) by OCTET'; the legend calls it SPR).
Test [14] shares this target. The test is described as follows: ELISA on coated A56 (100 ng), fit; R square 0.9942.
For test [15] the target is unchanged. The test is described as follows: ELISA on coated A56 (100 ng), fit; R square 0.9274.
Test [16] has the same target. The test is described as follows: ELISA (row 'KD (M) by ELISA').
For test [17] the target is unchanged. The test is described as follows: OCTET (row 'KD (M) by OCTET'; the legend calls it SPR).

Read-outs that look alike come from different tables or passages of the source.

Experimental findings from patent publication US20240156865A1 (BIONOXX, published 2024) are described below.

B1: anti-A56 antibody Ab16 (antibody, V domains shown)
VH: QVQLQQSGPGLVKPSQTLSLTCAISGDSVSSNSAAWNWIRQSPSRGLEWLGRTYYRSKWYNDYAVSVKSRITINPDTSKNQFSLQLNSVTAVDTAVYYCAKSYAGPISYYYYGLDVWGQGTTVTVSS
VL: QSALTQPASVSGSPGQSVTISCTGTSSDIGRYNLVSWYQQHPGKAPKLMIYGGSKRPSGVSNRFSGSNSDNTASLTISGLRAEDEADYYCSSYASSSTPYVFGTGTKVTVL
notes: also called SA2041; A56-02B08
Take B1: the Kd (as a rule, the equilibrium constant for the complex coming apart) was determined as 0.024 nM in test [1], 0.228 nM in [2], 2.28 nM in test [3] and 0.024 nM in test [4]. Moreover, the koff (commonly the first-order rate constant of dissociation) in [3] was 0.000561 s⁻¹. In test [5], the kon (commonly the second-order rate constant of association) was 246000 M⁻¹ s⁻¹.

B2: anti-A56 antibody Ab19 (antibody, V domains shown)
VH: QVQLVESGAEVRRPGSSVKVSCKTSGVTFSGYVLSWVRQAPGHGLEWMGRIIPLIDVENYAREFQGRMKITADKSTNTVYMELNNLRSEDTAVYYCAKSVVRGLDYYYYGFDVWGQGTTVTVSS
VL: SYELTQPPSLSVAPGKTARITCGGNNIGSKSVHWYQQKPGQAPRLVTYYDGNRPSGIPERFSGSNSGNTATLIISRVEAGDEADYYCQVWDSSSDQGVFGTGTKVTVL
notes: also called SA2044; A56-02C07
As for B2, the Kd in test [3] was found to be 0.438 nM; in [6] it was 0.438 nM; in [7] it was 0.044 nM; in [8] it was 0.044 nM. In [3], the koff is 2.47e-05 s⁻¹. Also, the kon in test [5] stood at 56400 M⁻¹ s⁻¹.

B3: anti-A56 antibody Ab01 (antibody, V domains shown)
VH: QMQLVQSGAEVKKPGSSVKVSCKASGGTFSSYAISWVRQAPGQGLEWMGGIIPIFGTANYAQKFQGRVTMTRDTSTSTVYMELSSLKSEDTAVYYCARFVFGSGTYLDSWGQGTLVTVSS
VL: not shown
notes: also called SA2026; A56-01A02
Regarding B3, the dissociation constant Kd was 0.492 nM in [9], 0.492 nM in [3], 0.029 nM in test [10] and 0.029 nM in test [11]. For the same molecule, the koff in test [3] amounted to 9.67e-05 s⁻¹. Also, the kon in test [5] was determined as 196000 M⁻¹ s⁻¹.

B4: anti-A56 antibody Ab18 (antibody, V domains shown)
VH: QVQLVESGGGLVQPGKSLRLSCAASGFTFSTYGMTWVRQAPGKGLEWVSGISGGGSSTNYADSVKGRFIISRDNSNNTLYLQMNSLRAEDTAVYYCARWGVMLSFDYWGQGTPVTVSS
VL: DIQMTQSPSTLPASVGDRVTITCRASYSVSPWLAWYQQKPGKAPKLLIYKASTLESGVPSRFSGSGSGTEFTLTISSLQPDDFATYYCQQFNSYMMYTFGQGTKLEIK
notes: also called SA2043; A56-02C06
For the molecule B4, the Kd in test [3] amounted to 0.196 nM; in test [12], 0.026 nM; in test [13], 0.196 nM; in test [14], 0.026 nM. The koff in [3] was 1.96e-05 s⁻¹. In addition, the kon in test [5] was 100000 M⁻¹ s⁻¹.

B5: anti-A56 antibody Ab13 (antibody, V domains shown)
VH: QMQLVESGAEVKKTGSSVKVSCKASGDTLTYRFLHWVRQAPGQAPEWMGWITPFNDNTNYAQKFQDRVTITRDRSMSTAYMELSSLRSEDTAVYYCATGGGNNYYGMEVWGQGTPITVSS
VL: SYELTQPLSLSVSPGQTASITCSGDKLGDKFTSWYQQQPGQSPVLVIYQDAKRPSGIPERFSGSNSGSTATLTISGTQSMDEADYYCQAWDSSSVVFGGGTKLTVL
notes: also called SA2038; A56-02A02
Consider B5, for which the Kd in test [15] was 0.033 nM; in test [16], 0.033 nM; in test [3], 0.739 nM; in test [17], 0.739 nM. The koff in test [3] came to 8.26e-05 s⁻¹. Further, in test [5], the kon came out at 112000 M⁻¹ s⁻¹.
